The values below come from publication PMC1326212, “Dimerization and enzymatic activity of fungal 17β-hydroxysteroid dehydrogenase from the short-chain dehydrogenase/reductase superfamily” (BMC Biochemistry, 2005).

Series [1] has as its target 17β-HSDcl-His111Ala (Cochliobolus lunatus). The series is described as follows: SEC; gel filtration on TSK G4000 SWxl, 100 mM phosphate buffer with 150 mM NaCl, pH 7.0; about 40 μg protein in 100 μl injected, 1.0 ml/min; mass by calibration standards.
Series [2] has as its system NC(=O)C1=CN([C@@H]2O[C@H](COP(=O)(O)OP(=O)(O)OC[C@H]3O[C@@H](n4cnc5c(N)ncnc54)[C@H](OP(=O)(O)O)[C@@H]3O)[C@@H](O)[C@H]2O)C=CC1. The series is described as follows: purified protein. Format: biochemical, Curvularia lunata. As to conditions: reduction of 4-estrene-3,17-dione (100 μM), 100 mM phosphate pH 8.0, 25°C, 1% DMF, varied: cofactor.
Series [3] has as its system NC(=O)c1ccc[n+]([C@@H]2O[C@H](COP(=O)(O)OP(=O)(O)OC[C@H]3O[C@@H](n4cnc5c(N)ncnc54)[C@H](OP(=O)(O)O)[C@@H]3O)[C@@H](O)[C@H]2O)c1. Description: purified protein. As to conditions: oxidation of 4-estrene-17β-ol-3-one (100 μM), 100 mM phosphate pH 8.0, 25°C, 1% DMF, varied: cofactor. Format: biochemical, Curvularia lunata.
Series [4] deals with 17β-HSD type 1 (Homo sapiens) (UniProt P14061). As to conditions: cited from earlier work.
Series [5] deals with T1, 17β-HSDcl (Curvularia lunata, UniProt O93874, H111L).
T1 construct: gene 17HSDcl; GST fusion (pGex-17β-HSDcl) from E. coli JM107, GST cut off with thrombin; 28 kDa subunit; wild type and H111A homodimeric, H111L and R129D monomeric
The series is described as follows: intrinsic fluorescence quenching titration. It is filed as binding. The source says: (§1) intrinsic fluorescence quenching titration on 17β-HSDcl

For series [6], the target named is T2, 17β-HSDcl (Curvularia lunata, UniProt O93874, H111A).
T2 construct: gene 17HSDcl; GST fusion (pGex-17β-HSDcl) from E. coli JM107, GST cut off with thrombin; 28 kDa subunit; wild type and H111A homodimeric, H111L and R129D monomeric
The series is described as follows: intrinsic fluorescence quenching titration. Format: binding.
Text: as §1

Series [7] addresses T3, 17β-HSDcl (Curvularia lunata, UniProt O93874, R129D).
T3 construct: gene 17HSDcl; GST fusion (pGex-17β-HSDcl) from E. coli JM107, GST cut off with thrombin; 28 kDa subunit; wild type and H111A homodimeric, H111L and R129D monomeric
Description: intrinsic fluorescence quenching titration. Format: binding.
Text: as §1

Series [8] deals with the molecule itself. The series is described as follows: SEC; gel filtration on TSK G4000 SWxl, 100 mM phosphate buffer with 150 mM NaCl, pH 7.0; about 40 μg protein in 100 μl injected, 1.0 ml/min; mass by calibration standards.

On to 17β-HSDcl-His111Ala (enzyme), for which the stoichiometry N in series [1] came out at 2.
As to 17β-HSDcl (Curvularia lunata; H111A), in series [2], the Km amounted to 50.6 µM, the kcat is 2.4 s⁻¹ and the kcat/Km came to 47000 M⁻¹ s⁻¹. Further, in series [3], the Km was determined as 4.6 µM, the kcat was 0.9 s⁻¹ and the specificity constant (kcat/Km) was determined as 190000 M⁻¹ s⁻¹.
Regarding 17β-HSD type 1 (from UniProt P14061), the Kd in series [4] was < 5 pM.
Consider `NC(=O)c1ccc[n+]([C@@H]2O[C@H](COP(=O)(O)OP(=O)(O)OC[C@H]3O[C@@H](n4cnc5c(N)ncnc54)[C@H](OP(=O)(O)O)[C@@H]3O)[C@@H](O)[C@H]2O)c1` [NADP^+], for which the Kd was 19.9 µM on 17β-HSDcl [5], 5.8 µM on 17β-HSDcl [6] and 12.8 µM at 17β-HSDcl [7].

B1: 17β-hydroxysteroid dehydrogenase from Cochliobolus lunatus, wild type (enzyme, UniProt O93874 1-270, looked up)
chain: MPHVENASETYIPGRLDGKVALVTGSGRGIGAAVAVHLGRLGAKVVVNYANSTKDAEKVVSEIKALGSDAIAIKADIRQVPEIVKLFDQAVAHFGHLDIAVSNSGVVSFGHLKDVTEEEFDRVFSLNTRGQFFVAREAYRHLTEGGRIVLTSSNTSKDFSVPKHSLYSGSKGAVDSFVRIFSKDCGDKKITVNAVAPGGTVTDMFHEVSHHYIPNGTSYTAEQRQQMAAHASPLHRNGWPQDVANVVGFLVSKEGEWVNGKVLTLDGGAA
notes: expected molecular mass 28 kDa; also called 17β-HSDcl; fungal 17β-HSD; source: E. coli JM107, GST fusion, purified (Glutathione Sepharose, thrombin cleavage)
Consider B1, for which the “stoichiometry N” value in series [8] worked out at 2.
